Data on 5 molecules can be found in US20190367618A1 (SHANGHAI JUNSHI BIOSCIENCES, published 2019).

One test has as its target T1, hPD-L1-his (human, UniProt Q9NZQ7 19-238, limits assumed).
T1 construct: also called human PD-L1; not shown: his tag
Briefly: ELISA, hPD-L1-his coated, anti-human IgG (Fc-specific)-peroxidase detection.

For test [1], the target named is T2, human PD-L1 extracellular domain protein (human, UniProt Q9NZQ7 19-238, biotin (biotin-NHS, molar ratio 1:10) where used as biotin-labeled human PD-L1 (Examples 2, 3, 5, 12, 17)).
T2 construct: extracellular domain; About 75 kDa on SDS-PAGE; also called human PD-L1 recombinant protein; biotin-labeled human PD-L1
T2 sequence (Q9NZQ7 19-238): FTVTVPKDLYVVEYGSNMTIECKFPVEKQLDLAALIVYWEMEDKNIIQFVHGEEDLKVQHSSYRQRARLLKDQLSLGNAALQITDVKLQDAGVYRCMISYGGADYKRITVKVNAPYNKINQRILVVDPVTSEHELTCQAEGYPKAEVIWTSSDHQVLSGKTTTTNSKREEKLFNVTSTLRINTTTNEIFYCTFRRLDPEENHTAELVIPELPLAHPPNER
Nature of the test: ForteBio (BLI). For orientation: Biolayer interferometry detects binding as a change in optical thickness at a sensor tip.

Another test addresses PD-L1 on CHO cells (human, UniProt Q9NZQ7 19-290). Nature of the test: cell-based or functional assay.
The target of test [2] is T2, human PD-L1 extracellular domain protein. Nature of the test: flow cytometry, inhibition of biotin-PD-L1 (1 µg/ml) binding to PD-1 on 293F cells. A general note: A flow cytometer gives signals particle by particle.
The target in test [3] is T3, human PD-L1 (ELISA coat, construct not stated) (human, UniProt Q9NZQ7 19-238, limits assumed).
T3 construct: also called human PD-L1 protein
T3 sequence (Q9NZQ7 19-238 limits assumed): as the sequence (Q9NZQ7 19-238) above
Briefly: ELISA, PD-L1 coated. The procedure: A 96-well microtiter plate was plated, coated with PD-L1, and incubated at 37° C. for 60 minutes. The solution in the wells was then discarded, and the wells were washed 3 times with washing buffer, and blocked with PBS containing 2% BSA for 60 minutes. After washed 3 times with washing buffer, each well was added with 100 μl of biotin-labeled IgG4 antibody, incubated at 37° C. for 30 minutes, washed 3 times with washing buffer, then added with humanized antibodies of different dilutions, and incubated at 37° C. for 1 hour. After washed 3 times with washing buffer, the cells were incubated with HPR-labeled mouse anti-human IgG (H+L) (diluted 1:10000 with washing buffer) at room temperature for 1 hour, washed 3 times with washing buffer, and then added with 100 μl of TMB substrate for development. After reacting for 30 minutes at room temperature, the reaction was terminated with 100 μl of 2 M hydrochloric acid solution and the absorbance was read at 450 nm.
For orientation: An ELISA detects its analyte on a solid surface through an enzyme-linked reagent.

Another test addresses T4, PD-L1 on 293F cells (UniProt Q9NZQ7 19-290, limits assumed).
T4 construct: whole, on cells
Briefly: flow cytometry on 293F cells expressing PD-L1. The procedure: Antibody (humanized antibodies 30, 38) dilutions at different concentrations was added in a volume of 50 μl, mixed and incubated at room temperature for 30 min. The cells were washed twice with FACS buffer, contacted with 100 μl of goat anti-human IgG-PE antibody, and incubated for 30 min in the dark. FACS was performed after washing twice with FACS buffer.

T1 sequence (Q9NZQ7 19-238 limits assumed): as the sequence (Q9NZQ7 19-238) above
T4 sequence (Q9NZQ7 19-290 limits assumed): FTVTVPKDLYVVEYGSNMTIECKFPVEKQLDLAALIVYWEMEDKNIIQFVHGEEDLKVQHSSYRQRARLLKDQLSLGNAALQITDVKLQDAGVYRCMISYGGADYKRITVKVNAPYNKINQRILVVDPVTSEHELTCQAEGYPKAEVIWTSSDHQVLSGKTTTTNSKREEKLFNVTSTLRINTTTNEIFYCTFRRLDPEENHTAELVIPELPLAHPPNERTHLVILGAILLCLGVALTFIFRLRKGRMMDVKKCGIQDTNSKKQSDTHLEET
PD-L1 on CHO cells, sequence (Q9NZQ7 19-290): as the sequence (Q9NZQ7 19-290 limits assumed) above

For orientation: EC50 means the concentration giving half of the maximal effect. For durvaluma (antibody), the 50% effective concentration (EC50) with hPD-L1-his came to 0.0216 µg/mL.

B1: clone 21 (murine antibody 21) (antibody, V domains shown)
VH: EGQLQESGPSLVKPSQTLSLTCSVTGDSITRGYWNWIRKFPGNKFEYMGYISYTGSTYSNLSLKSRISITRDTSKNHYYLRLNSVTTEDTATYYCATSTGWLDPVDYWGQGTLVTVSA
VL: DIVMTQSRKFMSTSVGDRASVTCKASQNVDTSVAWFQQKPGQSPKALIYSASFRYSGVPDRFTGSGSGTDFTLTISNVQSEDLAEYFCQQYYGYPFTFGSGTKLEIK
notes: Murine hybridoma antibody
As a reminder, the Kd is the constant that tells how readily two partners part at equilibrium. In the case of B1, the dissociation constant (Kd) in test [1] was found to be 0.9 nM.

B2: humanized antibody 38 (antibody, V domains shown)
VH: QGQLQESGPSLVKPSQTLSLTCTVSGDSITRGYWNWIRKPPGKGLEYIGYISYTGSTYSNLSLKSRVTISRDTSKNQYYLKLSSVTAADTAVYYCATSTGWLDPVDYWGQGTLVTVSS
VL: DIQMTQSPSSLSASVGDRVTITCRASQNVDTSVAWFQQKPGKAPKALIYSASFRYSGVPSRFSGSGSGTDFTLTISSLQPEDFATYFCQQYYGYPFTFGQGTKLEIK
As a reminder, the IC50 is the midpoint of a concentration-inhibition curve. As to B2, the “EC50, Jurkat fluorescein (PD-1/NFAT-luciferase reporter) analysis” value with PD-L1 on CHO cells is 0.082 µg/mL. In addition, the IC50 in test [2] amounted to 0.889 µg/mL. The EC50 was 0.000837 µg/mL in test [3] and 0.348 µg/mL with PD-L1 on 293F cells.

B3: humanized antibody 30 (antibody, V domains shown)
VH: QGQLQESGPSLVKPSQTLSLTCTVSGDSITRGYWNWIRKHPGKGLEYIGYISYTGSTYSNLSLKSRVTISRDTSKNQYYLKLSSVTAADTAVYYCATSTGWLDPVDYWGQGTLVTVSS
VL: DIVMTQSPDSLAVSLGERATINCKASQNVDTSVAWFQQKPGQPPKALIYSASFRYSGVPDRFSGSGSGTDFTLTISSLQAEDVAVYFCQQYYGYPFTFGQGTKLEIK
B3: the “EC50, Jurkat fluorescein (PD-1/NFAT-luciferase reporter) analysis” value with PD-L1 on CHO cells amounted to 0.0782 µg/mL. In addition, the half-inhibitory concentration (IC50) in test [2] amounted to 0.647 µg/mL. The EC50 worked out at 0.000558 µg/mL in test [3], 0.0111 µg/mL with hPD-L1-his and 0.287 µg/mL with PD-L1 on 293F cells.

B4: clone 16 (murine antibody 16) (antibody, V domains shown)
VH: EVQLQQSGPELVKPGASVKMSCKASGYTFTNYVIHWVKQTPGQGLEWIGYINPNIDGGSYNEKFNGKAKMTSDKSSSTVHMELRSLTYEDFAVYYCAKPRGSWGQGTLVTVSA
VL: DIVLTQSPASLAVSLGQRATISCRASESVEFYGTSLMQWYQQKPGQPPKLLIYAASNVDSGVPARFSGSGSGTDFSLNIHPVEEDDIAMYFCQQGRHVPYTFGGGTKLEIK
notes: Murine hybridoma antibody
Turning to B4, the Kd in test [1] came to 0.5 nM.
